Laboratory results from paper PMC4102243, “Rett-causing mutations reveal two domains critical for MeCP2 function and for toxicity in MECP2 duplication syndrome mice”.

Target: MeCP2 C-terminal fragment WT (human, UniProt P51608 274-340)
Test: EMSA; 10 mM Tris-HCl pH 7.4, 50 mM KCl, 0.5 mM MgCl2, 0.1 mM EDTA, 5% glycerol, 0.1 mg/ml BSA, 66.7 nM probe, room temperature 30 min; 1% agarose gel, 1X TAE, 4 C
Conditions: protein: recombinant; tags: N-terminal GST (pGEX-5x3); label: none (ethidium bromide post-stain); blunt

Chain of MeCP2 C-terminal fragment WT (P51608 274-340): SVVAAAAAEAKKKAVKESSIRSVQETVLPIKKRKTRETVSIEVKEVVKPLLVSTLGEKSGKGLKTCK

B1: 64-bp EMSA probe (dsDNA)
DNA 1: GGACTCCAGGTCCAGGACCGCGTTTTTCGCGCGCACGGCGCGGGAGGTCCAGCTGTCCACCTCC
DNA 2: GGAGGTGGACAGCTGGACCTCCCGCGCCGTGCGCGCGAAAAACGCGGTCCTGGACCTGGAGTCC
- binding result: binds
